Results on three molecules are retold here after patent US20250073239A1, “COMBINATION OF AN IMMUNOCYTOKINE COMPRISING IL-12 AND A KINASE INHIBITOR” (PHILOGEN S.P.A., priority 2022, published 2025).

The conditions of data set [1]: rodents, cited from earlier work.
The conditions of data set [2]: humans, patients with cancer; cited from earlier work.
For data set [3], the system named is MC-38 cells, derived from C57BL/6 murine colon adenocarcinoma cells. The experiment in a line: Therapy experiments: tumour volume in MC-38 tumor-bearing mice. It counts as in vivo, C57BL/6 mice. The conditions noted are these: on day 8, 11 and 14. As for the experimental part:
MC-38 cells, derived from C57BL/6 murine colon adenocarcinoma cells were cultured in DMEM medium supplemented with Fetal Bovine Serum (10%) and antibiotic-antimycotic (1%) following the supplier's protocol and kept in culture for no longer than 10 passages with a confluence lower than 90%. Eight-week-old female C57BL/6 mice were used for the experiment.
MC-38 cells were grown to 80% confluence and detached with Trypsin-EDTA 0.05%. Cells were washed, counted and re-suspended in HBSS to a final concentration of 1×10^7 cells ml^−1. Aliquots of 1×10^6 cells (100 μl of the suspension) were injected subcutaneously in the right flank of each animal. Tumor volume was determined with the following formula: (length×width^2×0.5) measured with a caliper.
Preparation of the tumor cells and tumor implantation have been done as described above in chapters 2.1 and 2.2.

The nature of data set [4]: Toxicity monitored by daily body weighing of MC-38 tumor-bearing mice. The conditions noted are these: for weight loss: alone or with Ruxolitinib 75 mg/kg s.c., day 8, 11, 14.
Experimental: When tumors reached an average of about 50-100 mm^3, MC-38 tumor-bearing mice were randomized, and different treatments were started. Eight different groups (4/5 mice per group) received the following treatments: • (i) i.v. vehicle on day 8, 11 and 14 after tumor implantation • (ii) s.c. Ruxolitinib (75 mg/kg) on day 8, 11 and 14 after tumor implantation • (iii) i.v. L19-IL12 (0.6 mg/kg) on day 8, 11 and 14 after tumor implantation • (iv) i.v. L19-IL12 (0.9 mg/kg) on day 8, 11 and 14 after tumor implantation • (v) i.v. L19-IL12 (1.2 mg/kg) on day 8, 11 and 14 after tumor implantation • (vi) s.c Ruxolitinib (75 mg/kg) and i.v. L19-IL12 (0.6 mg/kg) on day 8, 11 and 14 after tumor implantation • (vii) s.c. Ruxolitinib (75 mg/kg) and i.v. L19-IL12 (0.9 mg/kg) on day 8, 11 and 14 after tumor implantation • (viii) s.c. Ruxolitinib (75 mg/kg) and i.v. L19-IL12 (1.2 mg/kg) on day 8, 11 and 14 after tumor implantation
Ruxolitinib was always administered 10 minutes prior the subsequent administration of L19-IL12 at the three different dose levels.
Toxicity of the different treatments was monitored by daily body weighing and general appearance of the animals.

Turning to `N#CC[C@H](C1CCCC1)n1cc(-c2ncnc3[nH]ccc23)cn1` [Ruxolitinib], the blood half-life result in data set [1] (after injection) is recorded as “less than 1 hour”. For the same molecule, the “time to complete wash-out from blood” value in data set [1] was no more than 24 h.
Turning to “recombinant human IL-12: recombinant human interleukin-12 cytokine tested in clinical trials in patients with cancer”, the maximal tolerated dose in data set [2] is listed as 0.5 μg/kg of body weight.

B1: L19-IL12: fusion protein of the anti-EDB L19 antibody in single chain diabody format fused to single-chain murine IL-12 (SEQ ID NO 19) (protein)
chain: MWELEKDVYVVEVDWTPDAPGETVNLTCDTPEEDDITWTSDQRHGVIGSGKTLTITVKEFLDAGQYTCHKGGETLSHSHLLLHKKENGIWSTEILKNFKNKTFLKCEAPNYSGRFTCSWLVQRNMDLKFNIKSSSSSPDSRAVTCGMASLSAEKVTLDQRDYEKYSVSCQEDVTCPTAEETLPIELALEARQQNKYENYSTSFFIRDIIKPDPPKNLQMRPLKNSQVEVSWEYPDSWSTPHSYFSLKFFVRIQRKKEKMKETEEGCNQKGAFLVERTSTEVQCKGGNVCVQAQDRYYNSSCSKWACVPCRVRSGGGGSGGGGSGGGGSRVIPVSGPARCLSQSRNLLKTTDDMVKTAREKLKHYSCTAEDIDHEDITRDQTSTLKTCLPLELHKNESCLATRETSSTTRGSCLPPQKTSLMMTLCLGSIYEDLKMYQTEFQAINAALQNHNHQQIILDKGMLVAIDELMQSLNHNGETLRQKPPVGEADPYRVKMKLCILLHAFSTRVVTINRVMGYLSSAGSADGEVQLLESGGGLVQPGGSLRLSCAASGFTFSSFSMSWVRQAPGKGLEWVSSISGSSGTTYYADSVKGRFTISRDNSKNTLYLQMNSLRAEDTAVYYCAKPFPYFDYWGQGTLVTVSSGSSGGEIVLTQSPGTLSLSPGERATLSCRASQSVSSSFLAWYQQKPGQAPRLLIYYASSRATGIPDRFSGSGSGTDFTLTISRLEPEDFAVYYCQQTGRIPPTFGQGTKVEIKSSSSGSSSSGSSSSGEVQLLESGGGLVQPGGSLRLSCAASGFTFSSFSMSWVRQAPGKGLEWVSSISGSSGTTYYADSVKGRFTISRDNSKNTLYLQMNSLRAEDTAVYYCAKPFPYFDYWGQGTLVTVSSGSSGGEIVLTQSPGTLSLSPGERATLSCRASQSVSSSFLAWYQQKPGQAPRLLIYYASSRATGIPDRFSGSGSGTDFTLTISRLEPEDFAVYYCQQTGRIPPTFGQGTKVEIK
modifications: immunocytokine sequence
For B1, the “tumor growth (antitumor activity)” value in data set [3] (L19-IL12 0.6, 0.9 or […] i.v., alone or with Ruxolitinib 75 mg/kg s.c. 10 min before) is recorded as “effectively prevented tumor growth”; in data set [3] (high dose L19-IL12 2.4 or 3 mg/kg i.v., alone or with Ruxolitinib 75 mg/kg s.c.), “effectively prevented tumor growth”. In addition, the weight loss entry in data set [4] (L19-IL12 0.6 mg/kg i.v.) is “caused a weight loss”; in data set [4] (L19-IL12 0.9 mg/kg i.v.) it was “more severe toxicity”; in data set [4] (L19-IL12 […] i.v.) it was “more severe toxicity”; in data set [4] (high dose L19-IL12 2.4 or 3 mg/kg i.v.) it was greater than 15%. The “outcome of the weight loss for the animals” value in data set [4] (high dose L19-IL12 2.4 or 3 mg/kg monotherapy) is “sacrifice of the mice for ethical reasons”.
